B1: … (SEQ ID NO: 293) (peptide)
peptide: VYPHFSTTNLI
B2: … (SEQ ID NO: 313) (peptide)
peptide: KYTHFIQSF
B3: … (SEQ ID NO: 284) (peptide)
peptide: DYLKDPVTI
B4: … (SEQ ID NO: 310) (peptide)
peptide: IYAPTLLVF
B5: … (SEQ ID NO: 303) (peptide)
peptide: LYSVIKEDF
B6: … (SEQ ID NO: 282) (peptide)
peptide: NYLVDPVTI
B7: … (SEQ ID NO: 263) (peptide)
peptide: RYILENHDF
B8: … (SEQ ID NO: 270) (peptide)
peptide: YYSQESKVLYL
B9: … (SEQ ID NO: 291) (peptide)
peptide: YYLGSGRETF
B10: … (SEQ ID NO: 287) (peptide)
peptide: IYNPNLLTASKF
B11: … (SEQ ID NO: 275) (peptide)
peptide: KYGTLDVTF
B12: … (SEQ ID NO: 305) (peptide)
peptide: NYENKQYLF
B13: … (SEQ ID NO: 290) (peptide)
peptide: KYGDFKLLEF
B14: … (SEQ ID NO: 271) (peptide)
peptide: RFLMKSYSF
B15: … (SEQ ID NO: 289) (peptide)
peptide: FFHEGQYVF
B16: … (SEQ ID NO: 304) (peptide)
peptide: EYNEVANLF
B17: … (SEQ ID NO: 267) (peptide)
peptide: SFLNIEKTEILF
B18: … (SEQ ID NO: 250) (peptide)
peptide: KYPDIASPTF
B19: … (SEQ ID NO: 262) (peptide)
peptide: VYSSQFETI
B20: … (SEQ ID NO: 308) (peptide)
peptide: TFDGHGVFF
B21: … (SEQ ID NO: 259) (peptide)
peptide: YFIKSPPSQLF
B22: … (SEQ ID NO: 283) (peptide)
peptide: EYQEIFQQL
B23: … (SEQ ID NO: 268) (peptide)
peptide: IFITKALQI
B24: … (SEQ ID NO: 280) (peptide)
peptide: TYNPNLQDKL
B25: … (SEQ ID NO: 272) (peptide)
peptide: RYVFPLPYL
B26: … (SEQ ID NO: 274) (peptide)
peptide: KQLDIANYELF
B27: … (SEQ ID NO: 246) (peptide)
peptide: KYLSVQLTL
B28: … (SEQ ID NO: 256) (peptide)
peptide: VFGKSAYLF
B29: … (SEQ ID NO: 252) (peptide)
peptide: AFGQETNVPLNNF
B30: … (SEQ ID NO: 255) (peptide)
peptide: VYQKIILKF
B31: … (SEQ ID NO: 306) (peptide)
peptide: VYPAEQPQI
B32: … (SEQ ID NO: 273) (peptide)
peptide: IYGEKLQFIF
B33: … (SEQ ID NO: 288) (peptide)
peptide: VYPDTVALTF
B34: … (SEQ ID NO: 261) (peptide)
peptide: GYIKLINFI
B35: … (SEQ ID NO: 264) (peptide)
peptide: LYTETRLQF
B36: … (SEQ ID NO: 311) (peptide)
peptide: EYLQNLNHI
B37: … (SEQ ID NO: 279) (peptide)
peptide: VWLPASVLF
B38: … (SEQ ID NO: 266) (peptide)
peptide: KYTDWTEFL
B39: … (SEQ ID NO: 248) (peptide)
peptide: AFPTFSVQL
B40: … (SEQ ID NO: 294) (peptide)
peptide: RFPVQGTVTF
B41: … (SEQ ID NO: 302) (peptide)
peptide: LYLPVHYGF
B42: … (SEQ ID NO: 307) (peptide)
peptide: GYAFTLPLF
B43: … (SEQ ID NO: 260) (peptide)
peptide: VYMNVMTRL
B44: … (SEQ ID NO: 314) (peptide)
peptide: RYFKGDYSI
B45: … (SEQ ID NO: 249) (peptide)
peptide: RYHPTTCTI
B46: … (SEQ ID NO: 251) (peptide)
peptide: VYTKALSSL
B47: … (SEQ ID NO: 247) (peptide)
peptide: SFTKTSPNF
B48: … (SEQ ID NO: 301) (peptide)
peptide: KFDDVTMLF
B49: … (SEQ ID NO: 286) (peptide)
peptide: SYGTILSHI
B50: … (SEQ ID NO: 295) (peptide)
peptide: SYLVIHERI
B51: … (SEQ ID NO: 281) (peptide)
peptide: NYSPGLVSLIL
B52: … (SEQ ID NO: 254) (peptide)
peptide: KYLESSATF
B53: … (SEQ ID NO: 298) (peptide)
peptide: AYKSEVVYF
B54: … (SEQ ID NO: 309) (peptide)
peptide: KYYRQTLLF
B55: … (SEQ ID NO: 296) (peptide)
peptide: SYQVIFQHF
B56: … (SEQ ID NO: 299) (peptide)
peptide: KYQYVLNEF
B57: … (SEQ ID NO: 292) (peptide)
peptide: FYPQIINTF
B58: … (SEQ ID NO: 265) (peptide)
peptide: SYLNEAFSF
B59: … (SEQ ID NO: 258) (peptide)
peptide: AYAQLGYLL
B60: … (SEQ ID NO: 257) (peptide)
peptide: IFIDNSTQPLHF
B61: … (SEQ ID NO: 297) (peptide)
peptide: TYIDTRTVF
B62: … (SEQ ID NO: 269) (peptide)
peptide: QYPYLQAFF
B63: … (SEQ ID NO: 253) (peptide)
peptide: IYGFFNENF
B64: … (SEQ ID NO: 245) (peptide)
peptide: LYPQLFVVL
B65: … (SEQ ID NO: 312) (peptide)
peptide: SYTSVLSRL
B66: … (SEQ ID NO: 285) (peptide)
peptide: VYVGDALLHAI
B67: … (SEQ ID NO: 300) (peptide)
peptide: TYPSQLPSL
B68: … (SEQ ID NO: 276) (peptide)
peptide: QYLDVLHAL
B69: … (SEQ ID NO: 277) (peptide)
peptide: FYTFPFQQL

The text below walks through data of patent US20220249633A1.

The target of the assay is HLA-A*24 (human). Description: UV-exchange ELISA, exchange yield grade. On the technique in general: An ELISA detects its analyte on a solid surface through an enzyme-linked reagent.
The molecule B1 showed a peptide exchange yield above 75%.

As for B2, the peptide exchange yield was above 75%.

Consider B3, for which the peptide exchange yield was in the range of 50 to 75%. The molecule B4 came in with a peptide exchange yield of 50 to 75%. For B5 the value was 50 to 75%. The value for B6 was 50 to 75%; that for B7 was 50 to 75%. The value for B8 was 50 to 75%; that for B9 was 50 to 75%. With B10, the peptide exchange yield was in the range of 50 to 75%.

Turning to B11, the peptide exchange yield is above 75%. For B12 the value was above 75%; for B13, above 75%; for B14, above 75%. For B15 the value was above 75%; for B16, 50 to 75%. For B17 the value was 20 to 49%; for B18, 20 to 49%. B19 came in with a peptide exchange yield above 75%. B20 had a peptide exchange yield of 50 to 75%. The value for B21 was 20 to 49%; that for B22 was 50 to 75%; that for B23 was 20 to 49%.

With B24, the peptide exchange yield is above 75%. Turning to B25, the peptide exchange yield was above 75%.

B26: the peptide exchange yield was above 75%. The value for B27 was 20 to 49%; that for B28 was 50 to 75%; that for B29 was above 75%. B30 yielded a peptide exchange yield of 50 to 75%. The value for B31 was 50 to 75%; that for B32 was 50 to 75%. The value for B33 was 20 to 49%. B34 gave a peptide exchange yield above 75%. The value for B35 was above 75%. The value for B36 was above 75%; that for B37 was 50 to 75%. For B38 the value was 50 to 75%; for B39, above 75%; for B40, 50 to 75%. For the molecule B41, the peptide exchange yield is 50 to 75%. For B42 the value was 50 to 75%; for B43, above 75%. Take B44: the peptide exchange yield lay within 50 to 75%. On to B45, for which the peptide exchange yield is above 75%. For B46 the value was 50 to 75%; for B47, 50 to 75%; for B48, above 75%. The value for B49 was above 75%.

On to B50, for which the peptide exchange yield was 50 to 75%. The value for B51 was 50 to 75%; that for B52 was 50 to 75%. For B53 the value was above 75%.

In turn, B54 yielded a peptide exchange yield of 20 to 49%. The value for B55 was above 75%. Regarding B56, the peptide exchange yield fell in the range of 50 to 75%.

B57 registered a peptide exchange yield above 75%. Take B58: the peptide exchange yield is above 75%.

B59 showed a peptide exchange yield of 50 to 75%. For B60 the value was 50 to 75%. For B61 the value was above 75%.

Molecule B62 showed a peptide exchange yield of 50 to 75%.

Take B63: the peptide exchange yield was in the range of 50 to 75%.

Molecule B64 had a peptide exchange yield of 50 to 75%. For B65 the value was 50 to 75%. Molecule B66 came in with a peptide exchange yield of 50 to 75%. The value for B67 was 50 to 75%. For B68 the value was above 75%; for B69, 50 to 75%.
